How the values were obtained:
Rotavirus = test: cell-based or functional assay
Hepatitis A virus (HAV) = test: cell-based or functional assay
[1] = target: Human infectious Norovirus (genotype GII-4); test: BLI, antibody and Con A each immobilized on ARG2 chips, same concentration of Norovirus
[2] = target: Human infectious Norovirus (genotype GII-4); test: Norovirus captured on Con A-bound sepharose 4B resin, Ct values by RT-PCR

With “concanavalin A (Con A, sigma) (from UniProt P02866 30-281)” the concentration of Rotavirus (copy number by RT-PCR) in MA-104 cells, Con A plus Rotavirus group (Rotavirus) was 64000 unit, the concentration of HAV (copy number by RT-PCR) in FRhk-4 cells, Con A plus HAV group (Hepatitis A virus (HAV)) was 27000 unit and the fold stronger binding than the antibody [1] was 3 fold. It also gave a collection rate [2] of 94.1%.

Reference: US20170285011A1
